From article PMC8269962 (Nature, 2021)

Target: H3-I53_dn5B trimer (H3 HA ectodomain fused to the N terminus of I53_dn5B) (influenza A virus (H3N2))
Experiment: SEC

For “H3-I53_dn5B trimer (H3 HA ectodomain fused to the N terminus of I53_dn5B)”, the stoichiometry N was 3.
